From patent US10919937B2, “Bicyclic peptide ligands and uses thereof” (BicycleTx Limited, priority 2018, dated 2021)
*1 amine or outer side, *2 acyl side, *3 side chain or, on linkers, in order; H or OH if unused. Where a SMILES comes first, the peptide text is derived from it. Bridges are numbered along the chain shown (N, C = ends). [ ]: non-standard residue; d: D form. X11 = O=C(C[*:1])N1CCN(c2ccc(-c3nc(-c4ccc(N5CCN(C(=O)C[*:2])CC5)cc4)nc(-c4ccc(N5CCN(C(=O)C[*:3])CC5)cc4)n3)cc2)CC1; X7 = O=C(c1ccc(C[*:1])cc1)N1CN(C(=O)c2ccc(C[*:2])cc2)CN(C(=O)c2ccc(C[*:3])cc2)C1

How the values were obtained:
CAIX = CAIX (Homo sapiens, UniProt Q16790); conditions: bicyclic peptide formed with TBMB scaffold; CAIX binder; cited from earlier work
EphA2 = biological target: T1, EphA2 (Homo sapiens, UniProt P29317); assay: EphA2 SPR Assay; format: binding; conditions: n = 2
T1 construct: purchased
T1 sequence (P29317 24-976, species assumed): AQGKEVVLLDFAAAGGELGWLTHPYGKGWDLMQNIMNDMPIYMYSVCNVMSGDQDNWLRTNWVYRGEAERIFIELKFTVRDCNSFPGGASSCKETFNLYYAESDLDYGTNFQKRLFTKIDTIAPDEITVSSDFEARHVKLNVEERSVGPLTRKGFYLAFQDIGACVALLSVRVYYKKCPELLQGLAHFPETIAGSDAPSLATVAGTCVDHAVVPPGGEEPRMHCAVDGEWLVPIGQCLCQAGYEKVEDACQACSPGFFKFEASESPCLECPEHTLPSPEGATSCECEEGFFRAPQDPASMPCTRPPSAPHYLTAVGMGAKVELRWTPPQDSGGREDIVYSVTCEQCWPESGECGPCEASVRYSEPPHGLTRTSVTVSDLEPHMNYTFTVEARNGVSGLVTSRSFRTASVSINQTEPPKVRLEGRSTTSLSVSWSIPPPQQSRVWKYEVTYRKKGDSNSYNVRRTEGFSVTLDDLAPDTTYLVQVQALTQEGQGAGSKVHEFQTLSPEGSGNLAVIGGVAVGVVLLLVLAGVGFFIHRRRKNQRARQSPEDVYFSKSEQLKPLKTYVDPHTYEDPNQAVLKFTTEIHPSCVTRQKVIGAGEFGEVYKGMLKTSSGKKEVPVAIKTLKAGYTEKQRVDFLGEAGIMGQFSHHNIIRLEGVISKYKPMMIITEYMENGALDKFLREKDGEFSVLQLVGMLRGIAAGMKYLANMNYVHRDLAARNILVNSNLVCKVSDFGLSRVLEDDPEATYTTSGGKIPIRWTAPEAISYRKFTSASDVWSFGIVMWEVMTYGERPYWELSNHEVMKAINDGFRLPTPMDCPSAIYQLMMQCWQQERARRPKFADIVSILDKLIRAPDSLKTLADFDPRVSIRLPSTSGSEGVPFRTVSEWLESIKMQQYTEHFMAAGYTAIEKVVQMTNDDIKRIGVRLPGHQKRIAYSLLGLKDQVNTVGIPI
Procedure: SPR Measurements: Non-Fc fusion proteins were biotinylated with EZ-Link™ Sulfo-NHS-LC-Biotin for 1 hour in 4 mM sodium acetate, 100 mM NaCl, pH 5.4 with a 3× molar excess of biotin over protein. The degree of labelling was determined using a Fluorescence Biotin QuantificationKit (Thermo) after dialysis of the reaction mixture into PBS. For analysis of peptide binding, a Biacore T200 10 instrument was used utilising a XanTec CMD500D chip. Streptavidin was immobilized on the chip using standard amine-coupling chemistry at 25° C. with HBS—N (10 mM HEPES, 0.15 M NaCl, pH 7.4) as the running buffer. Briefly, the carboxymethyl dextran surface was activated with a 7 min injection of a 1:1 ratio of 0.4 M 1-ethyl-3-(3-dimethylaminopropyl) carbodiimide hydrochloride (EDC)/0.1 M N-hydroxy succinimide (NHS) at a flow rate of 10 μl/min. For capture of streptavidin, the protein was diluted to 0.2 mg/ml in 10 mM sodium acetate (pH 4.5) and captured by injecting 120 μl onto the activated chip surface. Residual activated groups were blocked with a 7 min injection of 1 M ethanolamine (pH 8.5):HBS—N (1:1). Buffer was changed to PBS/0.05% Tween 20 and biotinylated EphA2 was captured to a level of 500-1500 RU using a dilution of protein to 0.2 μM in buffer. […]

MT1-MMP = MT1-MMP (Homo sapiens, UniProt P50281); conditions: bicyclic peptide formed with TBMB scaffold; MT1-MMP binder; cited from earlier work

Molecule	Kd (EphA2) [nM]	other results
βAla-Sar10-A-CTECWVDGWVPC (AXACTECWVDGWVPC; βAla-Sar10 N-terminal; TBMB scaffold; MOD_RES (1)..(1) Beta-Ala; MOD_RES (2)..(2) Sar10) [compound 2]		Kd (CAIX): 10 nM
CC(C)[C@H](NC(=O)[C@H](CC(=O)O)NC(=O)[C@H](C)N)C(=O)N[C@@H](Cc1cnc[nH]1)C(=O)N[C@H]1CSCC(=O)N2CCN(CC2)c2ccc(cc2)-c2nc3nc(n2)-c2ccc(cc2)N2CCN(CC2)C(=O)CSC[C@H](NC(=O)[C@H](Cc2c[nH]c4ccccc24)NC(=O)[C@H](Cc2ccccc2)NC(=O)[C@H]2CCCN2C(=O)CNC(=O)[C@H](Cc2c[nH]c4ccccc24)NC(=O)[C@@H]2CCCN2C1=O)C(=O)N1CCC[C@H]1C(=O)N[C@@H](C(C)C)C(=O)N[C@H](CC(N)=O)C(=O)N[C@H](CCCNC(=N)N)C(=O)N1CCC[C@@H]1C(=O)NCC(=O)N[C@H](C(=O)N[C@@H](C)C(=O)O)CSCC(=O)N1CCN(CC1)c1ccc-3cc1 [I-104] (H-ADVHCPWG[dP]FWCPV[dN][dR][dP]GCA-OH; linker 5-12-19 via X11)	< 500	
CC(C)[C@H](NC(=O)[C@H](CC(=O)O)NC(=O)[C@H](C)N)C(=O)N[C@@H](Cc1cnc[nH]1)C(=O)N[C@H]1CSCc2ccc(cc2)C(=O)N2CN3CN(C2)C(=O)c2ccc(cc2)CSC[C@H](NC(=O)[C@H](Cc2c[nH]c4ccccc24)NC(=O)[C@H](Cc2ccccc2)NC(=O)[C@H]2CCCN2C(=O)CNC(=O)[C@H](Cc2c[nH]c4ccccc24)NC(=O)[C@@H]2CCCN2C1=O)C(=O)N1CCC[C@H]1C(=O)N[C@@H](C(C)C)C(=O)N[C@H](CC(N)=O)C(=O)N[C@H](CCCNC(=N)N)C(=O)N1CCC[C@@H]1C(=O)NCC(=O)N[C@H](C(=O)N[C@@H](C)C(=O)O)CSCc1ccc(cc1)C3=O [I-103] (H-ADVHCPWG[dP]FWCPV[dN][dR][dP]GCA-OH; linker 5-12-19 via X7)	> 10000	
βAla-Sar10-A-C(D-Ala)NE(1Nal)(D-Ala)CEDFYD(tBuGLy)C (AXACANEXACEDFYDGC; βAla-Sar10 N-terminal; non-natural residues; molecular scaffold; MOD_RES (1)..(1) Beta-Ala; MOD_RES (2)..(2) Sar10; MOD_RES (5)..(5) D-Ala; MOD_RES (8)..(8) 1Nal; MOD_RES (9)..(9) D-Ala; MOD_RES (16)..(16) tBu-Gly) [17-69-07-N241, treated with molecular scaffold reagents]		Kd (MT1-MMP): 1.2 nM
